Assay results published in US20200131524.

Molecular target: T1, 3XHA-LEC2 (Arabidopsis LEAFY COTYLEDON 2, CDS in PB7HA 35S vector), Q1PFR7
T1 chain: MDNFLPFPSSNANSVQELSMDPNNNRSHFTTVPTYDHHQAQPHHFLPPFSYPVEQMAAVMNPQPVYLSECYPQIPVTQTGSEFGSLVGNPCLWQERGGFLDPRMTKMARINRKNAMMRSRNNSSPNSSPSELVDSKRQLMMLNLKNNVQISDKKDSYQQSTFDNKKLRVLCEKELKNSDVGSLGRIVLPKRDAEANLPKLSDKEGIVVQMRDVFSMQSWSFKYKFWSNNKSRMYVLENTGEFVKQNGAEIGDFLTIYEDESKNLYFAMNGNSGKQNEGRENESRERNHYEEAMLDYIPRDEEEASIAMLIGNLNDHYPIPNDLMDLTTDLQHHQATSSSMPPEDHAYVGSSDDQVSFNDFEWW

B1: 3xFLAG-UPL3 (Arabidopsis UBIQUITIN PROTEIN LIGASE 3, CDS in PW1266 35S vector) (protein)
chain: METRSRKRAEATSAAPSSSSSSPPPPPSASGPTTRSKRARLSSSSSSSLAPTPPSSSTTTRSRSSRSAAAAAPMDTSTDSSGFRRGGRGNRGNNNDNSDKGKEKEHDVRIRERERERDRAREQLNMDAAAAAARSADEDDDNDSEDGNGGFMHPNMSSASSALQGLLRKLGAGLDDLLPSSGIGSASSSHLNGRMKKILSGLRAEGEEGKQVEALTQLCEMLSIGTEDSLSTFSVDSFVPVLVGLLNHESNPDIMLLAARALTHLCDVLPSSCAAVVHYGAVSCLVARLLTIEYMDLAEQSLQALKKISQEHPTACLRAGALMAVLSYLDFFSTGVQRVALSTAANMCKKLPSDASDYVMEAVPLLTNLLQYHDSKVLEYASICLTRIAEAFAPYPEKLDELCNHGLVTQAASLISTSNSGGGQASLSVSTYTGLIRLLSTCASGSPLGFRTLLLLGISSILKDILLGSGVSANASVSPALSRPADQIYEIVNLANELLPPLPEGVISLPTSTNALVKGSCQKKSSPSTSGKQEDILKISPREKLLGDQPELLQQFGLDLLPVLVQIYGSSVNGTIRHKCLSVIGKLMYFSSSEMIQSLIGDTNISSFLAGVLAWKDPQVLVPALQVAEILMEKLPETFSKVFVREGVVHAVDQLVLVGKPSHASPTDKDNDCVPGSARSRRYRRRSSNANSDGNQSEEPKNPASLTIGANHNSLDTPTASFMLRETVSSCAKAFKDKYFPSDGGDVDVGVTDDLLHLKNLCTKLTAGIDDHKVKGKGKSKASGPFLGDFSASKEEYLIGVISEILGEISKGDGVSTFEFIGSGVVAALLNYFSCGYFSKEKISELNLPKLRQEGLRRFKAFLEVALPFDGNEGKVPPMTVLIQKLQNALSSLERFPVVLSHPSRSLSGSARLSSGLSALAHPLKLRLCRASGEKTLRDYSSNIVLIDPLASLAAVEEFLWPRVQRSESALKPAAPIGNTEPGTLPSGAGVSSPSSSTPASTTRRHSSRSRSAINIGDTSKKDPVHEKGTSSSKGKGKGVMKPAQADKGPQTRSNAQKRAVLDKDTQMKPASGDSSSEDEELEISPVDIDDALVIEEDDISDDEDDDNEDVLDDSLPMCTPDKVHDVKLADSVDDDGLATSGRQMNPASGGTSGAAAARASDSIDTGIGNSYGSRGALSFAAAAMAGLGAASGRGIRGSRDLHGRTLNRSSDEPSKLIFTAAGKQLSRHLTIYQAVQRQLMLDEDDDDRFGGSDLVSSDGSRFNDIYTIMYQRPDSQVNRLSVGGASSTTPSKSTKSATTNSSVESQSHRASLLDSILQGELPCDLEKSNSTYNVLALLRVLEGLNQLCPRLRAQTLSDRFAEGKITSLDDLSTTAAKVPLDEFVNSKLTPKLARQIQDALALCSGSLPSWCYQLTRACPFLFPFQTRRQYFYSTAFGLSRALNRLQQQQGADGSGSTNEREMRIGRLQRQKVRVSRNRILDSAAKVMEMYSSQKAVLEVEYFGEVGTGLGPTLEFYTLLSHDLQKASLGMWRSSSGDKVSMQIGRDEIEDGKPSAANRDIVLAPLGLFPRPWPSTADISEGGQFHKVIEYFRLLGRVMAKALQDGRLLDVPLSTAFYKLILGQELDLHDIVLFDAELGKTLQELRVVVARKHYLEGVGGDNSSTISDLCLRGCRIEDLSLEFTLPGYPEYILRSGDEIVDITNLEEYISLVVDATVKRGVTRQIEAFRSGFNQVFDITSLQIFTPSELDYLLCGRRELWEVETLAEHIKFDHGYNAKSPAIINLLEIMGELTADQQRAFCQFVTGAPRLPPGGLAVLNPKLTIVRKHSSTSSAAANGAGASETADDDLPSVMTCANYLKLPPYSTKEIMYKKLLYAINEGQGSFDLS
Q: Which “ubiquitylation of LEC2 (HA immunoprecipitation and immunoblot after co-expression in Nicotiana benthamiana)” value does the source give for B1 here?
A: The value was “when co-expressed with 3xFLAG-UPL3, 3XHA-LEC2 ubiquitylation appears enhanced”.
